# T1: FcγRIIa H (FcγRIIa type H, His at position 131), extracellular domain with C-terminal His tag (human, UniProt P12318 34-217)
# T1 construct: extracellular domain; expressed in FreeStyle293 cells; also called FcgRIIa H; 2aH; not shown: His tag attached to the C terminus
# T1 sequence (looked up): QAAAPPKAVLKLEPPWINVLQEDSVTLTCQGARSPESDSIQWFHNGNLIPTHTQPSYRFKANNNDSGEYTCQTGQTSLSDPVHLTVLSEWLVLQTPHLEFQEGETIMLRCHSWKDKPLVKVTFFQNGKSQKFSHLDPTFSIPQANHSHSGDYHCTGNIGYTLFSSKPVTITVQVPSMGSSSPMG
# T2: FcγRIIb, extracellular domain with C-terminal His tag (human, UniProt P31994 43-217)
# T2 construct: extracellular domain; expressed in FreeStyle293 cells; also called FcgRIIb; 2b; not shown: His tag attached to the C terminus
# T2 sequence (looked up): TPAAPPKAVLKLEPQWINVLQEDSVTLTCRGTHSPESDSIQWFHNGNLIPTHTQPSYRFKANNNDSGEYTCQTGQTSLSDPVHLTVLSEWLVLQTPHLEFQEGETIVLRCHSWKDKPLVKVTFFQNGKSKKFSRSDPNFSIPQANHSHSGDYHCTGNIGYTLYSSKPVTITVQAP
# T3: FcγRIIb (human, UniProt P31994 43-217)
# T3 construct: extracellular domain; Soluble extracellular domain with a C-terminal His tag, expressed in FreeStyle293 cells; also called FcgRIIb; 2b; not shown: His tag attached to the C terminus
# T3 sequence (looked up): T2 sequence (looked up)
# B1: GpH7-A5/GpH7-B3 variant V266_07I/GpL16-k0 (antibody, human IgG1, kappa)
# heavy 1: not shown
# heavy 2: not shown
# light: DIVMTQSPLSLPVTPGEPASISCQASESLVHSNRNTYLHWYLQKPGQSPQLLIYKVSNRFSGVPDRFSGSGSGTDFTLKISRVEAEDVGVYYCSQNTHVPPTFGQGTKVEIERTVAAPSVFIFPPSDEQLKSGTASVVCLLNNFYPREAKVQWKVDNALQSGNSQESVTEQDSKDSTYSLSSTLTLSKADYEKHKVYACEVTHQGLSSPVTKSFNRGEC
# notes: Heterodimerized antibody (He Ab): mutation in the GpH7-B3 chain only; also called He Ab
# B2: GpH7-A5/GpH7-B3 variant V266_04F/GpL16-k0 (antibody, human IgG1, kappa)
# heavy 1: not shown
# heavy 2: not shown
# light: B1 light
# notes: as for B1
# B3: GpH7-A5/GpH7-B3 variant P238_03V/GpL16-k0 (antibody, human IgG1, kappa)
# heavy 1: not shown
# heavy 2: not shown
# light: B1 light
# notes: Heterodimerized anti-glypican-3 IgG1; the mutation is in the GpH7-B3 chain only; also called He Ab
# B4: GpH7-A5/GpH7-B3 variant P238_13S/GpL16-k0 (antibody, human IgG1, kappa)
# heavy 1: not shown
# heavy 2: not shown
# light: B1 light
# notes: as for B3
# B5: GpH7-A5/GpH7-B3 variant P238_14T/GpL16-k0 (antibody, human IgG1, kappa)
# heavy 1: not shown
# heavy 2: not shown
# light: B1 light
# notes: as for B3
# B6: GpH7-A5/GpH7-B3 variant P238_16H/GpL16-k0 (antibody, human IgG1, kappa)
# heavy 1: not shown
# heavy 2: not shown
# light: B1 light
# notes: as for B3
# B7: GpH7-A5/GpH7-B3 variant P238_09D/GpL16-k0 (antibody, human IgG1, kappa)
# heavy 1: not shown
# heavy 2: not shown
# light: B1 light
# notes: as for B3
# B8: GpH7-A5/GpH7-B3 variant P238_18N/GpL16-k0 (antibody, human IgG1, kappa)
# heavy 1: not shown
# heavy 2: not shown
# light: B1 light
# notes: as for B3
# B9: GpH7-A5/GpH7-B3 variant P238_06M/GpL16-k0 (antibody, human IgG1, kappa)
# heavy 1: not shown
# heavy 2: not shown
# light: B1 light
# notes: as for B3
# B10: GpH7-A5/GpH7-B3 variant P238_11K/GpL16-k0 (antibody, human IgG1, kappa)
# heavy 1: not shown
# heavy 2: not shown
# light: B1 light
# notes: as for B3
# B11: GpH7-A5/GpH7-B3 variant P238_10E/GpL16-k0 (antibody, human IgG1, kappa)
# heavy 1: not shown
# heavy 2: not shown
# light: B1 light
# notes: as for B3
# B12: GpH7-A5/GpH7-B3 variant D265_01G/GpL16-k0 (antibody, human IgG1, kappa)
# heavy 1: not shown
# heavy 2: not shown
# light: B1 light
# notes: as for B3
# B13: GpH7-A5/GpH7-B3 variant P238_15Y/GpL16-k0 (antibody, human IgG1, kappa)
# heavy 1: not shown
# heavy 2: not shown
# light: B1 light
# notes: as for B3
# B14: GpH7-A5/GpH7-B3 variant P238_12R/GpL16-k0 (antibody, human IgG1, kappa)
# heavy 1: not shown
# heavy 2: not shown
# light: B1 light
# notes: as for B3
# B15: GpH7-A5/GpH7-B3 variant P238_04F/GpL16-k0 (antibody, human IgG1, kappa)
# heavy 1: not shown
# heavy 2: not shown
# light: B1 light
# notes: as for B3
# B16: GpH7-A5/GpH7-B3 variant P238_07I/GpL16-k0 (antibody, human IgG1, kappa)
# heavy 1: not shown
# heavy 2: not shown
# light: B1 light
# notes: as for B3
# B17: GpH7-A5/GpH7-B3 variant P238_08L/GpL16-k0 (antibody, human IgG1, kappa)
# heavy 1: not shown
# heavy 2: not shown
# light: B1 light
# notes: as for B3
# Biological target: T1, FcγRIIa H (FcγRIIa type H, His at …)
# Assay: SPR (Biacore), antibody captured on antigen peptide chip, FcγR as analyte; relative to GpH7-A5/GpH7-B3/GpL16-k0 = 100
row,He/Con_2aH (relative binding activity),Binder
1,106 % of HeCon Ab (= 100),B1
2,25.3 % of HeCon Ab (= 100),B2

# Biological target: T2, FcγRIIb, extracellular domain with …
# Assay: as above
row,He/Con_2b (relative binding activity),Binder
1,152 % of HeCon Ab (= 100),B1
2,57.6 % of HeCon Ab (= 100),B2

# Biological target: T3, FcγRIIb
# Assay: SPR (Biacore), antibody captured on chip, FcγR as analyte
row,He/Con_2b,Binder
1,"120 relative binding, GpH7-A5/GpH7-B3/GpL16-k0 = 100",B3
2,"70.4 relative binding, GpH7-A5/GpH7-B3/GpL16-k0 = 100",B4
3,"50.7 relative binding, GpH7-A5/GpH7-B3/GpL16-k0 = 100",B5
4,"115 relative binding, GpH7-A5/GpH7-B3/GpL16-k0 = 100",B6
5,"221 relative binding, GpH7-A5/GpH7-B3/GpL16-k0 = 100",B7
6,"73.2 relative binding, GpH7-A5/GpH7-B3/GpL16-k0 = 100",B8
7,"174 relative binding, GpH7-A5/GpH7-B3/GpL16-k0 = 100",B9
8,"18.1 relative binding, GpH7-A5/GpH7-B3/GpL16-k0 = 100",B10
9,"232 relative binding, GpH7-A5/GpH7-B3/GpL16-k0 = 100",B11
10,"16.1 relative binding, GpH7-A5/GpH7-B3/GpL16-k0 = 100",B12
11,"218 relative binding, GpH7-A5/GpH7-B3/GpL16-k0 = 100",B13
12,"51.4 relative binding, GpH7-A5/GpH7-B3/GpL16-k0 = 100",B14
13,"312 relative binding, GpH7-A5/GpH7-B3/GpL16-k0 = 100",B15
14,"80 relative binding, GpH7-A5/GpH7-B3/GpL16-k0 = 100",B16
15,"204 relative binding, GpH7-A5/GpH7-B3/GpL16-k0 = 100",B17

# Biological target: T4, FcγRIIIa (human, UniProt P08637 17-208)
# T4 construct: extracellular domain; Soluble extracellular domain with a C-terminal His tag; also called FcgRIIIa; 3a; not shown: His tag attached to the C terminus
# Assay: as above
# T4 sequence (P08637 17-208): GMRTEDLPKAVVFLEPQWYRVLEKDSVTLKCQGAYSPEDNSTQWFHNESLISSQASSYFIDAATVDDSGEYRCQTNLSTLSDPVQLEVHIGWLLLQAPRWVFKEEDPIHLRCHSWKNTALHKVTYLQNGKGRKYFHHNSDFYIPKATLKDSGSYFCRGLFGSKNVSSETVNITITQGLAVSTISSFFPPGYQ
row,He/Con_3a,Binder
1,"43.8 relative binding, GpH7-A5/GpH7-B3/GpL16-k0 = 100",B3
2,"44.9 relative binding, GpH7-A5/GpH7-B3/GpL16-k0 = 100",B4
3,"28 relative binding, GpH7-A5/GpH7-B3/GpL16-k0 = 100",B5
4,"30.7 relative binding, GpH7-A5/GpH7-B3/GpL16-k0 = 100",B6
5,"106 relative binding, GpH7-A5/GpH7-B3/GpL16-k0 = 100",B7
6,"40.4 relative binding, GpH7-A5/GpH7-B3/GpL16-k0 = 100",B8
7,"30.5 relative binding, GpH7-A5/GpH7-B3/GpL16-k0 = 100",B9
8,"10.4 relative binding, GpH7-A5/GpH7-B3/GpL16-k0 = 100",B10
9,"105 relative binding, GpH7-A5/GpH7-B3/GpL16-k0 = 100",B11
10,"4.5 relative binding, GpH7-A5/GpH7-B3/GpL16-k0 = 100",B12
11,"64.5 relative binding, GpH7-A5/GpH7-B3/GpL16-k0 = 100",B13
12,"12.2 relative binding, GpH7-A5/GpH7-B3/GpL16-k0 = 100",B14
13,"46.7 relative binding, GpH7-A5/GpH7-B3/GpL16-k0 = 100",B15
14,"27.8 relative binding, GpH7-A5/GpH7-B3/GpL16-k0 = 100",B16
15,"75.5 relative binding, GpH7-A5/GpH7-B3/GpL16-k0 = 100",B17

# Biological target: T4, FcγRIIIa
# Assay: SPR; He/Con_3a (FcγRIIIa) divided by He/Con_2b (FcγRIIb)
row,He_3a/2b (IIIa/IIb) [ratio],Binder
1,0.36,B3
2,0.64,B4
3,0.55,B5
4,0.27,B6
5,0.48,B7
6,0.55,B8
7,0.18,B9
8,0.57,B10
9,0.45,B11
10,0.28,B12
11,0.3,B13
12,0.24,B14
13,0.15,B15
14,0.35,B16
15,0.37,B17

# Biological target: T1, FcγRIIa H (FcγRIIa type H, His at …)
# Assay: SPR (Biacore); He/Con_2aH divided by He/Con_2b (FcγRIIa H against FcγRIIb)
row,He_2aH/2b (IIaH/IIb) [ratio],Binder
1,0.69,B1
2,0.44,B2
